Experimental data taken from patent US20200231668A1 (INTRINSIC LIFESCIENCES, published 2020).

T1: recombinant human erythroferrone (ERFE) (human, UniProt Q4G0M1 29-354)
T1 construct: Secreted from transfected HEK293F cells and purified from the supernatant; also called human ERFE; hERFE
T1 sequence: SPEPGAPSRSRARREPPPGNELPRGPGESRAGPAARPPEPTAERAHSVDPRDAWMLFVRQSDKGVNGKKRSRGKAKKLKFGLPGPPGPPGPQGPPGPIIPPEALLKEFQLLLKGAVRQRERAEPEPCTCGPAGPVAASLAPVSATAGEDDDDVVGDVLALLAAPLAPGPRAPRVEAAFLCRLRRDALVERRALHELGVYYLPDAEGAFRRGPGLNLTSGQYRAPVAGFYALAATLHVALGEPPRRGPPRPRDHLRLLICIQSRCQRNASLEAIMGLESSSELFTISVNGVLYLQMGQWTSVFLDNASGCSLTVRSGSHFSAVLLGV


Columns and labels:
[1] = biological target: T1, recombinant human erythroferrone (ERFE); assay: sandwich ELISA, biotinylated detection antibody; coating antibodies 7H4, 17A5, 4C1
[2] = biological target: T1, recombinant human erythroferrone (ERFE); assay: sandwich ELISA, biotinylated detection antibody (also used as coating antibody); coating antibodies 7H4, 17A5, 4C1

Binder	binding result [1]	binding result [2]
monoclonal antibody 9B12 (ATCC Accession Number PTA-123882) (antibody, mouse IgG1, kappa, V domains shown, Mouse IgG1 from hybridoma; Biotinylated when used as detection antibody) VH: QVQLQQSGPELVKPGASVRISCKASGYTFTSYYIHWVKQRPGQGLEWIAWIYPGNVNTEYNEKFKGKATLTADESSSTAYMQLSSLTSEDSAVFFCAREGITTNALDYWGQGTSVTVSS VL: DIQMTQTTSSLSASLGDRVTISCRASQDISNYLNWYQQKPDGTVKLLIYYTSRLYSGVPSRFSGNGSGSDYSLTISNLEQEDIATYFCQQGHTLWTFGGGTKLEIKR	binds	
monoclonal antibody 17A5 (ATCC Accession Number PTA-123883) (antibody, mouse IgG1, kappa, V domains shown, Mouse IgG1 from hybridoma; Biotinylated when used as detection antibody) VH: QVQLQQPGSVLVRPGASVKLSCKASGYTFTSYWMHWAKQRPGQGLEWIGEIHPKSGDTNHNEKFKGKATLTVDTSSNTAYVDLSSLTSEDSAVYYCAREGITTVGFDLWGAGTTVTVSS VL: QIVLTQSPAIMSASPGQKVTLTCSASSSVSYMNWVQQKSGTSPKRWIYDTSKLASGVPARFSGSGSGTSYSLTISSVEAEDAATYYCQQWSSHPYTFGGGTKLEIKR		binds
